Earlier results in publication PMC6258349.
Where two headings read alike, the source gives them in different places.

Legend:
[1] = molecular target: chaperone-adhesin FimC-FimH (Escherichia coli) (UniProt P31697)
[2] = molecular target: chaperone-adhesin FimC-FimH (Escherichia coli) (UniProt P31697); remark: listed apart in the source

UniProt P31697, sequence (P31697 37-241, chain 1 of 2): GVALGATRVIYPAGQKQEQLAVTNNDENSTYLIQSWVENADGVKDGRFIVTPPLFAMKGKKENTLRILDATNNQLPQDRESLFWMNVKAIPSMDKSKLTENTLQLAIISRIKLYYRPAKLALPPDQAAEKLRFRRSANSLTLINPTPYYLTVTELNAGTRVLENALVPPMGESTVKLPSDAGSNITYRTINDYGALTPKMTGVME
UniProt P31697, sequence (P08191 22-300, chain 2 of 2, further chain): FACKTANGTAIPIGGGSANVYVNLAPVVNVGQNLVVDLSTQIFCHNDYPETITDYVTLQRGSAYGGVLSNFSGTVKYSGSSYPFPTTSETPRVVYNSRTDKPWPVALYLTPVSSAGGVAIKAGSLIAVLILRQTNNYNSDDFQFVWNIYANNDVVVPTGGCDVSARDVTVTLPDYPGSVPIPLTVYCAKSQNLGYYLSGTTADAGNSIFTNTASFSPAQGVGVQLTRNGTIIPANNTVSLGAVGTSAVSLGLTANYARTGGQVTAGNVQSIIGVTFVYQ

Substance	Kd [1] [nM]	Kd [2] [nM]
FimD usher CTD (from UniProt P30130)	40	
FimD usher NTD (from UniProt P30130)		389
